Literature values in paper PMC3631546.

Molecular target: His37 (UniProt position 37, IIGILHLILWI)
Test: NMR
Settings: membrane-bound tetrameric channel, no drug mentioned

In the case of “Influenza A M2 proton channel, transmembrane peptide (M2TM) (Influenza A virus (strain not stated))”, the pKa is given as 8.2.
